Experimental findings from patent publication US20210147574A1 (UNIVERSIT DEGLI STUDI DI FIRENZE, published 2021) are described below.

Assay [1] addresses T1, hERG1 (human, UniProt Q12809 1-1159).
T1 construct: whole, on cells; also called human ether-a-go-go-related gene 1 potassium channel; hERG1 antigen
In words: immunofluorescence on fixed and live HEK293-hERG1 cells, intensity by ImageJ. The procedure: Then an immunofluorescence analysis was performed using scFv-hERG1-G3 and scFv-hERG1-D8Cys on fixed cells, to determine the immunoreactivity of the two antibodies. […] Data analysis obtained using ImageJ Software is reported in the graphs reported in panel C.
Cells were seeded O/N on glass coverslips and then washed once with PBS and fixed with 4% paraformaldeide for 20 min at room temperature. Blocking was performed with 10% BSA for 2 h at room temperature. Antibody incubation was performed using scFv-hERG1-G3, scFv-hERG1-D8Cys, diluted 1:20 in blocking solution and incubated for 2 and half hours, followed by anti-His (1:250; Abcam) O/N incubation in blocking solution. The following day, cells were washed three times with PBS and incubated with anti-mouse Alexa488 antibody (Invitrogen) for 1 h. Whereas, scFv-hERG1-G3-Alexa488 and scFv-hERG1-D8Cys-Alexa488, diluted 1:20 in blocking solution, were incubated O/N at 4° C.
Cells were grown O/N on 60 mm plates (Sarstedt) using an agarose (15 g/L) ring in order to isolate cells and minimize the volumes of reagents needed for incubations. Cells were incubated with scFv-hERG1-G3-Alexa488 and scFv-hERG1-D8Cys-Alexa488 diluted 1:20 in complete culture medium in a 37° C. incubator with 5% C02 for 4 h. Rivelation was performed using Hoechst, as previously described. Cells were visualized on a inverted light microscopy (Nikon, Eclipse TE300).

The next assay concerns the target T2, S5-Pore peptide.
T2 construct: Peptide of the S5-pore extracellular portion of hERG1; also called S5PORO peptide; peptide S5PORO
T2 peptide: EQPHMDSRIGWLHN
Kind of assay: binding to immobilized antigen (method section: ELISA on plates coated with S5-Pore peptide). As to the method: To evaluate if the two engineered antibodies, scFv-hERG1-G3 and scFv-hERG1-D8Cys, have still the ability to bind the antigen and afterwards to investigate the different affinity of the two antibodies ELISA assays were performed using plates coated with S5-Pore peptide (sequence: […]), towards which the antibody is directed. This peptide is the same we used to screen anti-hERG1 A7 antibody.
A general note: An ELISA detects its analyte on a solid surface through an enzyme-linked reagent.

Assay [2] deals with T1, hERG1. In words: cell-based or functional assay.

T1 sequence (Q12809 whole entry): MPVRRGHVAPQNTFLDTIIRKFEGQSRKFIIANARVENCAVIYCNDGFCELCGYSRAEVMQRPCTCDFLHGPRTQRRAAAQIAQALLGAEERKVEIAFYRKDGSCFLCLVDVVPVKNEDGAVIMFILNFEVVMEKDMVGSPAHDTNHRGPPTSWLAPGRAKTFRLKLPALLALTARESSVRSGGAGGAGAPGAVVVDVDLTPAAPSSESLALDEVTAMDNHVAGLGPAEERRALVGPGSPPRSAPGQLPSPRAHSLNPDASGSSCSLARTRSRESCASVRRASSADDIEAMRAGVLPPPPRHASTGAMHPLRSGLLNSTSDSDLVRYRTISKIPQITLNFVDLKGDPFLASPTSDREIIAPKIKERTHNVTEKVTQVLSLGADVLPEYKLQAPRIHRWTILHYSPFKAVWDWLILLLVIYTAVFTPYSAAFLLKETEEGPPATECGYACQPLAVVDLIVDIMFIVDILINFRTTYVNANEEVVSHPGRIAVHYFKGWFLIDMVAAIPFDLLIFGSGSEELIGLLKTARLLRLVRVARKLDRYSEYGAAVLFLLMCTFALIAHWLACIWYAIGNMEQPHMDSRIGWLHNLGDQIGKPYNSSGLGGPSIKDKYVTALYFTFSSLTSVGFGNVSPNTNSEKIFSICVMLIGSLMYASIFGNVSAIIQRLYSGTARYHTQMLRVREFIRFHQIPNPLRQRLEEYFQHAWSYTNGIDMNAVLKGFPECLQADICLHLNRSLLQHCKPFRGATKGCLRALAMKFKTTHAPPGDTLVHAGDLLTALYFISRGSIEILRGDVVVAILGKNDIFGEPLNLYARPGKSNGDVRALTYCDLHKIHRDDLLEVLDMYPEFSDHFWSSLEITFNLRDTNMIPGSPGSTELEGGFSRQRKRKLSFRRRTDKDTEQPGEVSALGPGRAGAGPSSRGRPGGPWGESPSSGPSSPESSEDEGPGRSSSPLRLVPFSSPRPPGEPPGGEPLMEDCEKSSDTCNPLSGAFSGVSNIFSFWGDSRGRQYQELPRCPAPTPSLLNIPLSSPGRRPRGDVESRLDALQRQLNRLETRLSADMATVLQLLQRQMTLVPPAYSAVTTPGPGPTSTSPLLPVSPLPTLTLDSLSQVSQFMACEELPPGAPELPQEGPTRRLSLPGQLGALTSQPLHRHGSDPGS

B1: scFv-hERG1-D8Cys (scFv)
scFv: EVQLQQSGPELVKPGASVKISCKTSGYTFTEYTVHWVKQSHGKSLEWIGGINPNGGTTYNQKFKGKATLTIDKSSSSAFMELRSLTSEDSAVYYCATGWGPDYWGQGTTLTVSSAKTTPPSVYPLAPGSSGGGGSGGGGSGGSALDIVLTQSPLTLSVNIGQPASISCKSSQSLLYTNGKTYFNWLLQRPGQSPKRLIYLVSKLDSGVPDRFTGSGSGTDFTLKISRVEAEDLGVYYCAQGTHFPWTFGGGTKLEIKRADAAPTVSAAAEQKLISEEDLNGAA
notes: Clone D8, expressed in Pichia pastoris from pPIC9K with a 6xHis tag; Also tested after conjugation with Alexa 488; also called scFv-hERG1-Cys; anti-hERG1-Cys scFv
As to B1, the binding result with hERG1 [1] and with S5-Pore peptide was “binds” throughout.

B2: scDb-hERG1-Cys-β1 (bispecific antibody)
chain: EAECADEVQLQQSGPELVKPGASVKISCKTSGYTFTEYTVHWVKQSHGKSLEWIGGINPNGGTTYNQKFKGKATLTIDKSSSSAFMELRSLTSEDSAVYYCATGWGPDYWGQGTTLTVSSAKTTPPSVYPLAPGSSDIVMTQTPTTMAASPGDKITITCSVSSIISSNYLHWYSQKPGFSPKLLIYRTSNLASGVPPRFSGSGSGTSYSLTIGTMEAEDVATYYCQQGSDIPLTFGDGTKLDLKRADAAPTVSGGGGSGGGGSGGGGSGGGGSEVKVVESGGGLVKPGGSLKLSCAASGFTFSSYTMSWVRQTPEKRLEWVATISSGGSYTYYPDSVKGRFTISRDKAKNTLYLQMGSLKSEDTAMYYCTRIGYDEDYAMDHWGQGTSVTVSSAKTTPPSVYSALDIVLTQSPLTLSVNIGQPASISCKSSQSLLYTNGKTYFNWLLQRPGQSPKRLIYLVSKLDSGVPDRFTGSGSGTDFTLKISRVEAEDLGVYYCAQGTHFPWTFGGGTKLEIKRADAAPTVSAAAEQKLISEEDLNGAPRHHHHHHHH
With B2, in the assay with hERG1 [2], the “IC50, cell viability of MDA-MB 231 cells” value turned out to be 42 µg/mL and the “IC50, cell viability of PANC-1 cells” value is 24 µg/mL.
